We go through 2 proteins from article PMC5301497, “Dimerisation induced formation of the active site and the identification of three metal sites in EAL-phosphodiesterases” (Scientific Reports, 2017).

Series [1] concerns the molecule itself. Nature of the series: crystal structure; PA3825^EAL metal-free apo, tetragonal crystal P4_(3)2_(1)2, 1 molecule/AU, 1.60 Å.
Series [2] concerns the molecule itself. Nature of the series: crystal structure; MucR^EAL with c-di-GMP/Mg^2+, P2_(1), 2 molecules/AU, 2.27 Å; Morpheus Buffer System 1 pH 6.5, 21 °C.

B1: EAL domain of PA3825 (residues 255–517) (domain or fragment, Pseudomonas aeruginosa PAO1, UniProt Q9HXH7 255-517, looked up)
chain: SRRVASPSSELRRALEANEFIPYYQPLSPGQGGRWIGVEVLMRWRHPREGLIRPDLFIPFAERSGLIVPMTRALMRQVAEDLGGHAGKLEPGFHIGFNISATHCHELALVDDCRELLAAFPPGHITLVLELTERELIESSEVTDRLFDELHALGVKIAIDDFGTGHSSLAYLRKFQVDCLKIDQSFVARIGIDTLSGHILDSIVELSAKLDLDIVAEGVETPEQRDYLAARGVDYLQGYLIGRPMPLESLLSSLTVQEGQGAS
notes: PA3825, Pseudomonas aeruginosa PAO1, EAL phosphodiesterase domain, residues 255-517; The residue numbers of the results (Glu39, Asp160, Asp161, Glu217, loop 160-170) cannot count on the full-length protein; they seem to count on the crystallised domain or the PDB entries; Cloned into the popinF vector; Seen as a 'closed dimer' in the crystal; also called PA3825^EAL; PA3825-EAL; source: E. coli …
Consider B1, for which the binding result in series [1] was “binds”.

B2: EAL domain of MucR (residues 425–685) (domain or fragment, Pseudomonas aeruginosa PAO1, UniProt Q9I310 425-685, looked up)
chain: SSMNANAQEQLQLLHDLRQALERRQLVLHYQPKVLAPNGPMIGVEALLRWEHPQHGLITPGQFLPLAEKTGLIVQIGEWVLDEACRQMRLWLDGGHADWNIAVNLSALQFAHAGLVDSVRNALLRHSLEPSHLILEVTESTAMRDADASLVILEQLSAMGVGISIDDFGTGYSSLLYLKRLPASELKIDRGFINELAHDSDDAAIVSAIVALGRTLNLKIVAEGVETEAQQEFLTRLGCNSLQGFLLGRPMPAEQLLASVA
notes: MucR (PA1727), Pseudomonas aeruginosa PAO1, EAL phosphodiesterase domain, residues 425-685; Cloned into pET-28a through NdeI and HindIII, which would give an N-terminal His6 tag with a thrombin site (surmised); no cleavage of the tag is described; Seen as the 'classic dimer' in the crystal, 2 molecules in the asymmetric unit; also called MucR^EAL; MucR-EAL; source: E. coli BL21 DE3, purified …
Regarding B2, the binding result in series [2] is listed as “binds”.
